The subject of this data set is COc1cc2c(c(OC)c1OC)-c1ccc(OC)c(=O)cc1[C@@H](NC(C)=O)CC2. Put plainly: TP_TRANSPORTER: uptake in membranes from CEM/VLB100 cells. Type of data set: functional, cell membranes, Membrane.

A word on the Km: it is the concentration of substrate that gives half-maximal velocity.

For the substance “ATP-dependent translocase ABCB1 (Homo sapiens)”, the Km stood at 1.33 µM.

(Values after ChEMBL document CHEMBL2074321, “A continuous fluorescence assay for the study of P-glycoprotein-mediated drug efflux using inside-out membrane vesicles” (Anal Biochem, 1999).)
